In the supplement of paper PMC10567573 one finds protein stability index data, which are given here for 36 sequences.

± gives the standard deviation.

A short description of this series: protein stability index of a GFP-peptide fusion (GPS, HEK-293T) (PSI 1-6); higher = more stable. The settings on record: c terminus: a fixed tail appended.
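Further: 24-mer peptide tiles fused after GFP, lentivirally expressed, FACS-sorted into six equal bins by GFP/DsRed ratio, decoded by Illumina sequencing, PSI is the read-weighted mean bin number.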

As to IHFTLIQAFCCENDINILRVSNPG [GADD45A], the protein stability index (treatment: DMSO) was 3 ± 0.46 and the protein stability index (treatment: MLN4924 1 uM, 8 h) was determined as 2.71 ± 0.45.

Take IIHEAGYSEEECKQYKAVVYSNTI [GNAI1]: the protein stability index runs as follows: (treatment: DMSO) 2.81 ± 0.04; (treatment: MLN4924 1 uM, 8 h) 2.77 ± 0.45.

Turning to IIVNLLWFIHLVFVVLAFLTGVLC [TMEM192], the protein stability index is, setting by setting: (treatment: DMSO) 2.78 ± 0.58; (treatment: MLN4924 1 uM, 8 h) 2.3 ± 0.48.

As to IKALFRKGKVLAQQGEYSEAIPIL [FKBP8], the protein stability index reads like this: (treatment: DMSO) 2.54 ± 0.38; (treatment: MLN4924 1 uM, 8 h) 2.36 ± 0.42.

As to IKEVQKGGPADLAGLEDEDVIIEV [PDZK1], the protein stability index reads like this: (treatment: DMSO) 2.22 ± 0.27; (treatment: MLN4924 1 uM, 8 h) 2.49 ± 0.12.

For the sequence ILDTAGTEQFTAMRDLYMKNGQGF [RAP1B], the protein stability index stood at 3.29 ± 0.36 (treatment: DMSO) and 3.46 ± 0.36 (treatment: MLN4924 1 uM, 8 h).

On to ILREFEELHRRLDEEQQVLLSRLE [TRIM39], for which the protein stability index was 3.43 ± 0.3 (treatment: DMSO) and 3.63 ± 0.12 (treatment: MLN4924 1 uM, 8 h).

As for IMPDGTIVTTVTTVQSRPRIDGKL [C2CD2L], the protein stability index worked out at 3.31 ± 0.16 (treatment: DMSO) and 3.29 ± 0.39 (treatment: MLN4924 1 uM, 8 h).

Take INHGAEVTCKDKKGYTPLHAAASN [ANKRD44]: the protein stability index is, setting by setting: (treatment: DMSO) 4.23 ± 0.16; (treatment: MLN4924 1 uM, 8 h) 4.2 ± 0.24.

Regarding INIKGISEAKADKILAEAAKLVPM [RAD51], the protein stability index is 2.62 ± 0.15 (treatment: DMSO) and 2.42 ± 0.15 (treatment: MLN4924 1 uM, 8 h).

On to INLEGKTFYSKKDRPLCKSHAFSH [PDLIM7], for which the protein stability index by setting is: (treatment: DMSO) 2.55 ± 0.077; (treatment: MLN4924 1 uM, 8 h) 2.71 ± 0.33.

INTLNGLKLQTKTIKVSYARPSSA [ELAVL3]: the protein stability index runs as follows: (treatment: DMSO) 2.38 ± 0.2; (treatment: MLN4924 1 uM, 8 h) 2.39 ± 0.26.

Turning to IQYEMEYTEGISQRMRVPEKLKVA [MFF], the protein stability index (treatment: DMSO) came to 2.98 ± 0.28 and the protein stability index (treatment: MLN4924 1 uM, 8 h) turned out to be 3.08 ± 0.64.

IRINPQSWFDNGSICMRMEILGCP [CPXM2]: the protein stability index runs as follows: (treatment: DMSO) 2.86 ± 0.53; (treatment: MLN4924 1 uM, 8 h) 2.68 ± 0.59.

In the case of IRNEQFAIRRFQSMPVRLLGHSPV [CDC25B], the protein stability index runs as follows: (treatment: DMSO) 2.71 ± 0.4; (treatment: MLN4924 1 uM, 8 h) 2.71 ± 0.21.

Take ITMYAVGVGKAIEEELQEIASEPT [MATN2]: the protein stability index is 3.18 ± 0.13 (treatment: DMSO) and 3.16 ± 0.19 (treatment: MLN4924 1 uM, 8 h).

As for ITVGLVFLCLQYRLRGKLRAEIEN [MOG], the protein stability index worked out at 3.18 ± 0.42 (treatment: DMSO) and 3.29 ± 0.33 (treatment: MLN4924 1 uM, 8 h).

In the case of IVLAACSDYFCAMFTSELSEKGKP [KLHL12], the protein stability index was 2.76 ± 0.42 (treatment: DMSO) and 3.05 ± 0.64 (treatment: MLN4924 1 uM, 8 h).

For the sequence IYLATSSSKFYDLFLMECEESPNG [RHOBTB1], the protein stability index (treatment: DMSO) worked out at 2.66 ± 1.7 and the protein stability index (treatment: MLN4924 1 uM, 8 h) was 2.71 ± 0.98.

On to KAEECDTITLNCPRNSDMKNQGEE [EDARADD], for which the protein stability index is, setting by setting: (treatment: DMSO) 5.62 ± 0.32; (treatment: MLN4924 1 uM, 8 h) 5.51 ± 0.31.

In the case of KAELGALPHDFIDSLEKTDDDKYK [NLN], the protein stability index runs as follows: (treatment: DMSO) 5.31 ± 0.2; (treatment: MLN4924 1 uM, 8 h) 5.2 ± 0.32.

Take KANNLSSLSKKYRQDAKYLNMRST [SEC22B]: the protein stability index (treatment: DMSO) came to 3.23 ± 0.11 and the protein stability index (treatment: MLN4924 1 uM, 8 h) is 3.33 ± 0.24.

For KAPSTDDATWAAVAACTKEIDTQG [C10orf62], the protein stability index runs as follows: (treatment: DMSO) 5.14 ± 0.2; (treatment: MLN4924 1 uM, 8 h) 5.11 ± 0.09.

With KATFMYEQFPELMNMLWSRMLKDN [CLINT1], the protein stability index runs as follows: (treatment: DMSO) 2.28 ± 1.1; (treatment: MLN4924 1 uM, 8 h) 2.37 ± 0.4.

With KCKKKITGEIMHALKMTWHVHCFT [PDLIM7], the protein stability index runs as follows: (treatment: DMSO) 2.81 ± 0.81; (treatment: MLN4924 1 uM, 8 h) 2.7 ± 0.12.

For KDDKDFTGTVHRIDNTTVIYNSNI [KCNA1], the protein stability index reads like this: (treatment: DMSO) 4.29 ± 0.2; (treatment: MLN4924 1 uM, 8 h) 4.37 ± 0.2.

KDPAYFYGYVYFRQVRDKTLKRGY [DENND6A]: the protein stability index reads like this: (treatment: DMSO) 2.44 ± 0.31; (treatment: MLN4924 1 uM, 8 h) 1.96 ± 0.29.

As for KEAFDTIQEQKVVLEENGEKNQVQ [SASS6], the protein stability index reads like this: (treatment: DMSO) 5.49 ± 0.34; (treatment: MLN4924 1 uM, 8 h) 5.71 ± 0.11.

KEKANSLKNEIQEVEELDNWQPAV [SPATS1] yielded a protein stability index (treatment: DMSO) of 5.24 ± 0.2 and a protein stability index (treatment: MLN4924 1 uM, 8 h) of 5.25 ± 0.27.

Consider KGTSPSSKYVKLNVGGALYYTTMQ [KCTD10], for which the protein stability index by setting is: (treatment: DMSO) 2.28 ± 0.091; (treatment: MLN4924 1 uM, 8 h) 2.2 ± 0.14.

In the case of KHYRLQFYMFAWTHVTLLITVTQS [CDS1], the protein stability index came out at 2.93 ± 0.18 (treatment: DMSO) and 3.16 ± 0.16 (treatment: MLN4924 1 uM, 8 h).

For KIQNHGHRVLQRLEQRRQQASERE [FCHSD1], the protein stability index was found to be 4.28 ± 0.28 (treatment: DMSO) and 4.51 ± 0.075 (treatment: MLN4924 1 uM, 8 h).

For KIREQNLQDIKTAGPQSQVLCGVV [ADD1], the protein stability index reads like this: (treatment: DMSO) 3.15 ± 0.43; (treatment: MLN4924 1 uM, 8 h) 3.37 ± 0.24.

As to KKHKNSQLDKNSEVYQEVQAMFDT [FAM98B], the protein stability index worked out at 4.31 ± 0.39 (treatment: DMSO) and 4.27 ± 0.35 (treatment: MLN4924 1 uM, 8 h).

KKKSVAMHTNYLSACSFTNSDMQI [GNB5]: the protein stability index (treatment: DMSO) is 2.8 ± 0.12 and the protein stability index (treatment: MLN4924 1 uM, 8 h) is 2.8 ± 0.14.

In the case of KKLRLNGGRNPYEGRVEVLVERNG [LOXL2], the protein stability index was determined as 3.05 ± 0.13 (treatment: DMSO) and 4.01 ± 0.18 (treatment: MLN4924 1 uM, 8 h).
